The source of these data is PMC8102066, “Differences in interactions between transmembrane domains tune the activation of metabotropic glutamate receptors” (eLife, 2021).

In one assay the target is HA-SNAP-mGluR2-TMD (rat). The assay can be described thus: single-molecule pulldown (SiMPull) with photobleaching step counting; HEK 293T cells surface-labelled with BG-LD555, lysed in 1.2% IGEPAL, diluted in 0.1% IGEPAL buffer; HA-SNAP constructs captured by biotinylated anti-HA antibody on NeutrAvidin/PEG slides; TIRF; percent dimerization = two-step bleaching min-max normalised (5% background, 55% for full-length mGluR2); in some experiments saturating ligands (TASP, MNI 137, glutamate, LY34) kept from cell dissociation on.

The next assay concerns the target SNAP-mGluR2-TMD-3xTM4_W. Kind of assay: SiMPull. The settings on record: SNAP-tagged constructs labeled with LD555; 9 movies; parent: est. 83; read off a plot.
Assay [1] has as its target SNAP-mGluR2-TMD-I779A. Kind of assay: SiMPull. Particulars: SNAP-tagged constructs labeled with LD555; 6 movies; parent: est. 80; read off a plot.
Assay [2] addresses SNAP-mGluR2-TMD-I779A. Kind of assay: SiMPull. Particulars: SNAP-tagged constructs labeled with LD555; 6 movies; parent: est. 80; read off a plot. This is another data set of the same source.
The next assay deals with SNAP-mGluR2-TMD-I779W. The assay can be described thus: SiMPull. The settings on record: SNAP-tagged constructs labeled with LD555; 6 movies; parent: est. 80; read off a plot.
The target of the next assay is SNAP-mGluR2-TMD-P778A. Kind of assay: SiMPull. The settings on record: SNAP-tagged constructs labeled with LD555; 6 movies; parent: est. 80; read off a plot.
The target in assay [3] is SNAP-mGluR2-TMD-P778A-I779A. The assay can be described thus: SiMPull. Particulars: SNAP-tagged constructs labeled with LD555; 6 movies; parent: est. 80; read off a plot.
Another assay addresses HA-SNAP-mGluR3-TMD (rat). The assay can be described thus: single-molecule pulldown (SiMPull) with photobleaching step counting; HEK 293T cells surface-labelled with BG-LD555, lysed in 1.2% IGEPAL, diluted in 0.1% IGEPAL buffer; HA-SNAP constructs captured by biotinylated anti-HA antibody on NeutrAvidin/PEG slides; TIRF; percent dimerization = two-step bleaching min-max normalised (5% background, 55% for full-length mGluR2); in some experiments saturating ligands (TASP, MNI 137, glutamate, LY34) kept from cell dissociation on.

The next assay has as its target SNAP-mGluR3-TMD-F690A. The assay can be described thus: SiMPull. Particulars: SNAP-tagged constructs labeled with LD555; 6 movies; parent: est. 46; read off a plot.
The next assay concerns the target SNAP-mGluR3-TMD-G694A. The assay can be described thus: SiMPull. The settings on record: SNAP-tagged constructs labeled with LD555; 6 movies; parent: est. 46; read off a plot.
For the next assay, the target named is SNAP-mGluR3-TMD-I788A. The assay can be described thus: SiMPull. Particulars: SNAP-tagged constructs labeled with LD555; 6 movies; parent: est. 50; read off a plot.
Another assay has as its target SNAP-mGluR3-TMD-S686A. The assay can be described thus: SiMPull. The settings on record: SNAP-tagged constructs labeled with LD555; 6 movies; parent: est. 46; read off a plot.
The target in a further assay is SNAP-mGluR3-TMD-3xTM4_W. The assay can be described thus: SiMPull. The settings on record: SNAP-tagged constructs labeled with LD555; 6 movies; parent: est. 46; read off a plot.

Sequence of HA-SNAP-mGluR2-TMD (domain or fragment) (P31421 19-872): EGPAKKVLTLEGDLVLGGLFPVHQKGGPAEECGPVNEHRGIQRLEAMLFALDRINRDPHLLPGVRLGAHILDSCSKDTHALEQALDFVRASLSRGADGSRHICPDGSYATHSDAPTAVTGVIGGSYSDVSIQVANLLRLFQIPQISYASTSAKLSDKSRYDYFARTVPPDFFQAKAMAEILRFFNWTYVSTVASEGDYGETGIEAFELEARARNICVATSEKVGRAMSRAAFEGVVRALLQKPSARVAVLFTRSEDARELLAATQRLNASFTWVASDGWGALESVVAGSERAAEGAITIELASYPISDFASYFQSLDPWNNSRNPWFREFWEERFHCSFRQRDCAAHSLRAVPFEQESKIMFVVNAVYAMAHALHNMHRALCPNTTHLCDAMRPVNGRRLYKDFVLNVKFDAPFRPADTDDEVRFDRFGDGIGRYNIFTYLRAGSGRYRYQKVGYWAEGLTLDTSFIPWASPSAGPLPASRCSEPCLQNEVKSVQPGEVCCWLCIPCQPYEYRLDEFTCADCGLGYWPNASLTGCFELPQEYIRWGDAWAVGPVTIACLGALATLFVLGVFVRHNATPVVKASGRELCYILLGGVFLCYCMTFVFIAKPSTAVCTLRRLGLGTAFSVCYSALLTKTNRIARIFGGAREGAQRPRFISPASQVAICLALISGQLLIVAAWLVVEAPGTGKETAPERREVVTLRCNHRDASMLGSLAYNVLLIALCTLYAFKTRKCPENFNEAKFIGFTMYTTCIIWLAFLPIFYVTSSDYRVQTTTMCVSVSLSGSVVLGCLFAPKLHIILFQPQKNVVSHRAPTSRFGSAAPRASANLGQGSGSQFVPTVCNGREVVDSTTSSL
Sequence of HA-SNAP-mGluR3-TMD (domain or fragment) (P31422 23-879): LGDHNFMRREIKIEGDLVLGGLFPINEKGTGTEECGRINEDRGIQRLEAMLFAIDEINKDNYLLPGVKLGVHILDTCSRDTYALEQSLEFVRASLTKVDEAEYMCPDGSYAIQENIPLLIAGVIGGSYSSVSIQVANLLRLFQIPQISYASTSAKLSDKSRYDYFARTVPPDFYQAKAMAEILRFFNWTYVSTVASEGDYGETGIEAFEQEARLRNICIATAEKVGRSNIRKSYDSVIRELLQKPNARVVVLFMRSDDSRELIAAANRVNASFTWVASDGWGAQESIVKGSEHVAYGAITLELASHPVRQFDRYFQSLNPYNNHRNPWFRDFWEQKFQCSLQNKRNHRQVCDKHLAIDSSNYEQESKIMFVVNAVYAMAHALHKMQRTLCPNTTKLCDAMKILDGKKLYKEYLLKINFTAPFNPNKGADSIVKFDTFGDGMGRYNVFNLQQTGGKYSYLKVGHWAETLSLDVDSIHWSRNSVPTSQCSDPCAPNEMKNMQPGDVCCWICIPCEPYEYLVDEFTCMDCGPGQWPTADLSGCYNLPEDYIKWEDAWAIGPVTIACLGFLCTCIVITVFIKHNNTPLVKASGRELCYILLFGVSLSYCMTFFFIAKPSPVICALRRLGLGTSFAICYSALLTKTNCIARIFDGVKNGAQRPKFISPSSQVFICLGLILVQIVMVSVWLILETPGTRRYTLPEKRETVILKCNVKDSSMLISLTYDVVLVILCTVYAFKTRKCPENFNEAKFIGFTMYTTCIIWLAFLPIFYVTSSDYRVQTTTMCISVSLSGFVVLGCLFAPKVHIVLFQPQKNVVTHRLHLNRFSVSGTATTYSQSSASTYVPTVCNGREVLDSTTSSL

In the assay with HA-SNAP-mGluR2-TMD (rat), HA-SNAP-mGluR2-TMD (domain or fragment) gave a percent of spots bleaching in >3 steps of 4.5%, a percent of spots bleaching in one step of 54.1% and a percent of spots bleaching in two steps of 41.4%.
Consider HA-SNAP-mGluR2-TMD A677W; A681W; A685W, for which the other: percent dimerization in the assay with SNAP-mGluR2-TMD-3xTM4_W was determined as 39%.
For HA-SNAP-mGluR2-TMD I779A, the other: percent dimerization with SNAP-mGluR2-TMD-I779A [1] and with SNAP-mGluR2-TMD-I779A [2] was 57% in each case.
As to HA-SNAP-mGluR2-TMD I779W, the other: percent dimerization with SNAP-mGluR2-TMD-I779W stood at 61%.
On to HA-SNAP-mGluR2-TMD P778A, for which, in the assay with SNAP-mGluR2-TMD-P778A, the other: percent dimerization stood at 64%.
Turning to HA-SNAP-mGluR2-TMD P778A; I779A, the other: percent dimerization in assay [3] turned out to be 57%.
In the assay with HA-SNAP-mGluR3-TMD (rat), HA-SNAP-mGluR3-TMD (domain or fragment) came in with a percent of spots bleaching in >3 steps of 2.9%, a percent of spots bleaching in one step of 69.1% and a percent of spots bleaching in two steps of 27.9%.
With HA-SNAP-mGluR3-TMD F690A, the other: percent dimerization with SNAP-mGluR3-TMD-F690A was found to be 64%.
With HA-SNAP-mGluR3-TMD G694A, in the assay with SNAP-mGluR3-TMD-G694A, the other: percent dimerization was 62%.
With HA-SNAP-mGluR3-TMD I788A, the other: percent dimerization with SNAP-mGluR3-TMD-I788A was 38%.
Consider HA-SNAP-mGluR3-TMD S686A, for which the other: percent dimerization in the assay with SNAP-mGluR3-TMD-S686A came out at 72%.
Turning to HA-SNAP-mGluR3-TMD S686W; F690W; G684W, the other: percent dimerization with SNAP-mGluR3-TMD-3xTM4_W came to 45%.
